doi:10.1101/2020.05.20.105668
Values belong to the molecule of their own block, whether it stands above or below them.

Assays:
[1] = molecular target: s10_(long) H199Y/L207V; assay: peptide or protein array
[2] = molecular target: s10_(long) H199Y/T203F; assay: peptide or protein array
[3] = molecular target: s10_(long) H199Y; assay: peptide or protein array
[4] = molecular target: s10_(long) WT peptide L195[…]212; assay: peptide or protein array
[5] = molecular target: LOO10-GFP (circularly permuted superfolder GFP with strand 10 removed); assay: other fluorescence titration
[6] = molecular target: LOO10-GFP (circularly permuted superfolder GFP with strand 10 removed); assay: fluorescence complementation
[7] = molecular target: LOO10-GFP (circularly permuted superfolder GFP with strand 10 removed); assay: competition experiment followed by fluorescence

Molecule: LOO10-GFP (circularly permuted superfolder GFP with strand 10 removed) (domain or fragment)
- fold microarray fluorescence compared to WT [1]: 3 fold
- fold microarray fluorescence compared to WT [2]: 54 fold
- fold microarray fluorescence compared to WT [3]: 10 fold
- mean microarray fluorescence [4]: 741 FU

Molecule: LPDNHYLSTQTVRSKDPNE [s10 L207R peptide, long format (free 19-mer)]
- fold weaker affinity than WT (approximated) [7]: > 10 fold

Molecule: NYYLSTQTVLS [s10_(short) H199Y peptide]
- fold increase in affinity compared to WT [5]: 5 fold

Continued, values first:

- fold increase in affinity compared to WT [5]: 9 fold
Molecule: NYYLSYQTVLS [s10_(short) H199Y/T203Y peptide]

- fold increase in 520 nm signal on complementation [6]: 5 fold
Molecule: NHYLSTQTVLS [s10_(short) WT peptide N198…208]

- fold increase in affinity compared to WT [5]: 2 fold
Molecule: NHYLSYQTVLS [s10_(short) T203Y peptide]
